Laboratory results: paper PMC4497479, “Molecular characterization of an MYB transcription factor from a succulent halophyte involved in stress tolerance”

target: SbMYB44 (Salicornia brachiata, UniProt X2J380 1-269); test: EMSA; 15 mM HEPES, 35 mM KCl, 4 mM EDTA (pH 8.0), 1 mM DTT, 1 mM MgCl2, 6% glycerol, room temperature 20 min; 80 ng probe, 40 ug protein in Methods (ng in Results/Fig. 5); SYBR Green stain; conditions: protein: recombinant; tags: 6xHis (pET28a, EcoRI/XhoI); blunt
Sequence (X2J380 entry or part of it): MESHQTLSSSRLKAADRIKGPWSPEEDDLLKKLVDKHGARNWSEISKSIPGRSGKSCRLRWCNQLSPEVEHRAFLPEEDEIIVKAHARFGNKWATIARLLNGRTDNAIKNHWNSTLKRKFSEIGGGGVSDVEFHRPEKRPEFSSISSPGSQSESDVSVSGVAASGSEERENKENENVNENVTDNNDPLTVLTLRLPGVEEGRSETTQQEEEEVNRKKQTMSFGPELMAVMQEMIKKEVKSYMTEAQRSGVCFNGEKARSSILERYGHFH

Binder	binding result
RD22 (dsDNA) DNA 1: CTTCTAACCACTACGTGCCTTCTGCTCCTTCTGC DNA 2: GCAGAAGGAGCAGAAGGCACGTAGTGGTTAGAAG	binds
RD29a DRE (dsDNA) DNA 1: TAAAAGATATACTACCGACATGAGTTCCAAAAAGC DNA 2: GCTTTTTGGAACTCATGTCGGTAGTATATCTTTTA	no binding
MBS-1 (dsDNA) DNA 1: CGAGACACCCTAACTGACACACATTCT DNA 2: AGAATGTGTGTCAGTTAGGGTGTCTCG	binds
